Assay results published in patent US20120165211A1, “Human Antibodies Cross-Reacting With A Bacterial And A Self Antigen From Atherosclerotic Plaques” (priority 2007, published 2012).

What was measured:
[1] = target: T1, purified OmpK36 (Klebsiella pneumoniae, UniProt Q48473); assay: Western blot of purified OmpK36 with recombinant Fabs; assay type: binding; details: 400 ng OmpK36His per lane; Fabs at 10 μg/L; blocking PBS/BSA10%
T1 construct: made in house; host or cells: E. coli BL21 (DE3), pET28b (BamHI/XhoI cloning)
Description: 400 ng of purified OmpK36His was loaded on polyacrylamide gel (all lanes) and SDS-PAGE was performed. Proteins were blotted on PVDF membrane for 2 h at 350 mA. After blocking with PBS/BSA10% the membrane was cut to single lanes and each lane was incubated for 1 h with Fabs at 10 μg/L. After three washes membrane was incubated with anti-Human Light Chain K antibody (Sigma).

[2] = target: T2, recombinant transgelin (rTAGLN-Origene cod: TP302448) (human, UniProt Q01995 1-201); assay: western blot on human transgelin (referred back to)
T2 construct: also called commercial transgelin 1; human transgelin

[3] = target: T2, recombinant transgelin (rTAGLN-Origene …); assay: western blot on recombinant transgelin
[4] = target: T3, transgelin 1 (SM22) from coronary plaque lysate (human, UniProt Q01995 2-201); assay: 2D electrophoresis western blot of coronary plaque lysate with 7816FLAG, spots identified by MALDI-ToF
T3 construct: also called TAGLN; spots C1 and C2

[5] = target: T4, recombinant transgelin (rTAGLN) (Homo sapiens, UniProt Q01995); assay type: binding; details: 4-500 ng rTAGLN per well
T4 construct: purchased Origene TP302448

[6] = target: T5, ompK36 (Klebsiella pneumoniae, UniProt Q48473); assay: ELISA of 7816 IgG against coated ompK36; assay type: binding; details: full IgG1, 9 μg/ml; 8 μg OmpK36 coated; read at 450 nm
T5 construct: 6xHis (N); made in house; host or cells: E. coli BL21 (DE3), pET28b
Description: 8 μg of OmpK36 was coated on a 96 well ELISA plate in PBS, pH 5.0, overnight at 4° C. The day after, after three washes with PBS, the plate was blocked with PBS/BSA 1%, and purified 7816IgGs were added (9 μg/ml) to each well. After washing three timed with PBS/tween-20 0.1%, an anti-Human Fc antibody-HRP (SIGMA-Aldrich—diluted 1:8000), was added and incubated for 45-60 min. at 37° C. After five washes with PBS/Tween-20 0.1% 40 μL of TMB solution (Pierce) in every well was added and incubated for 15 min. at 37° C. After addition of 40 μl of Stop Solution (H2SO4 0.1 M) in every well the plates were read at 450 nm.

T2 sequence (Q01995 whole entry): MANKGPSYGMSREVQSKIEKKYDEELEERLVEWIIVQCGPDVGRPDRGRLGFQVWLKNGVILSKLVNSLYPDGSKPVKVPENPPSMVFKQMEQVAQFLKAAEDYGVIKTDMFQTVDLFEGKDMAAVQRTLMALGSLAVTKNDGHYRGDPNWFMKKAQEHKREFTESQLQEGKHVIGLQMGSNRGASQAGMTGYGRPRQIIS
T4 sequence (Q01995 whole entry): as above
T3 sequence (Q01995 2-201 limits assumed): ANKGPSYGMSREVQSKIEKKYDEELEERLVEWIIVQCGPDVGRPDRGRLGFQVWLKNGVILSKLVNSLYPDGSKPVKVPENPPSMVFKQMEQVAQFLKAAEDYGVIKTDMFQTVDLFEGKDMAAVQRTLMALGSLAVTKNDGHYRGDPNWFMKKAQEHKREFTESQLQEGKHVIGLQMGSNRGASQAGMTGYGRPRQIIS

B1: Fab 248: human recombinant Fab; heavy chain SEQ ID NO:14, light chain SEQ ID NO:16 (antibody, listed as Homo sapiens)
heavy: LESGGGLVKPGGSLRLSCAASGFTFSDYYMSWIRQAPGKGLEFISYISSGGDTIHHADSVKGRFTISRDNAKKSLYLQMNSLRVEDTAVYYCACRGVWGQGT
light: SPATVSVSPGERATLSCRASQSISFHLAWYQQKPGQAPSLLIYGTSTRATGIPARFSGSGSGTEFTLTISSLQSEDSAVYYCQQYHNWPPLTFGGGT
With B1 the “reactivity with purified OmpK36 in western-blot” value [1] was “react with purified OmpK36”.

B2: Fab 7816 (Fab, V domains shown)
VH: LESGPGQVKPSQTLSLTCTVSGGSIGSGSYSWNWIRQPAGRGLEWIGRISDSGNTNFNPSLKSRVTMSVDTSKNQFALKLTSVTAADTATYFCARGRGILTGLFDYWGQGSLVSVSS
VL: SPDSLAVSPGGRATIKCASSQSVLDNSNHKNSLAWYQQKPGLPPKLLIYWASTRYSGVPDRFSGSGSGTDFTLTINNLQAADVAVYFCQQYYSTPWTFGQGTKVE
notes: also called Fab E7816
B2: binds [2].

B3: IgG7816 (antibody, V domains shown)
VH: B2 VH
VL: B2 VL
B3: binds [3].

B4: 7816Fab-FLAG (Fab, V domains shown)
VH: B2 VH
VL: B2 VL
B4: binds [4].

B5: IgG7816: heavy and light chains of Fab 7816 cloned in pAc-k-Fc vector, expressed as IgG in Sf9 insect cells (antibody, V domains shown)
VH: LESGPGQVKPSQTLSLTCTVSGGSIGSGSYSWNWIRQPAGRGLEWIGRISDSGNTNFNPSLKSRVTMSVDTSKNQFALKLTSVTAADTATYFCARGRGILTGLFDYWGQGSLVSVSSASTKGPSVFPLAPSSKSTSGGTAALGCLVKD
VL: B2 VL
B5 was tested, and the “binding to human transgelin in Western blot” value [5] was “positive band is visible” and the “binding to ompK36 in ELISA” value [6] was “binds specifically to ompK36”.

B6: Fab 1630 (Fab, V domains shown)
VH: GGGLVKPGGSLRLSCTASGFTFSNGWMSWVRQAPGKGLEWVGRIRSNPDGGTTDYAAPFKGRFTISRDDSKNTLFLQVTSLKTEDTGVYYCITDRGDWKWGVPRDLTYWGQGTLVTVSS
VL: MAELTQSPDTLSLSPGERATLSCRASQSVDSNYLAWFQQKPGQAPRLLIYGAYSRATGIPDRFSGSGSGTDFTLTISRLEPEDFVVYYCQQYLSPPITFGQGTRLETKR
B6: binds [2].

B7: Fab1630: human recombinant Fab from plaque 12 library (ID12LIB); HC SEQ ID NO:10, LC SEQ ID NO:12 (antibody, listed as Homo sapiens)
heavy: GGGLVKPGGSLRLSCTASGFTFSNGWMSWVRQAPGKGLEWVGRIRSNPDGGTTDYAAPFKGRFTISRDDSKNTLFLQVTSLKTEDTGVYYCITDRGDWKWGVPRDLTYWGQGTLVTVSSASTKGPSVFPLAPSSKSTSGGTAALGCLVKDYFPEPVTV
light: AMAELTQSPDTLSLSPGERATLSCRASQSVDSNYLAWFQQKPGQAPRLLIYGAYSRATGIPDRFSGSGSGTDFTLTISRLEPEDFVVYYCQQYLSPPITFGQGTRLETKRTVAAPSVFIFPPSD
B7 was tested, and the “binding to human transgelin in Western blot” value [5] was “recognize human transgelin” and the “reactivity with purified OmpK36 in western-blot” value [1] was “react with purified OmpK36”.
